Laboratory results: the supplement of paper PMC6757056
± gives the standard deviation of the averaged measurements.

B1: library; a variant is named by its letters at N, in order (parent)
chain: GCUGUCACCGGUGCUUGGUACGUUAUAUUCAGCCGGUCUGAUGAGUCUNNNNNNAGACGAAACAGC

Assays:
[1] = variants of: B1; assay: normalized RNA/DNA level without ligand (relative to sTRSVctl = 100) (log10 (% of sTRSVctl)); HEK293T overexpressing SLC46A1; higher = less ribozyme self-cleavage, higher mRNA level; conditions: without (6R,S)-folinic acid; ligand present: no
How it was run: (§1)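 Ribozyme switch library plasmids with mCherry reporters (eGFP in certain ligand experiments) went into HEK293T cells at 4 µg per 6-well well. Where ligand was used, it was applied 1 h before transfection, and total RNA was extracted with EDTA 72 h later for reverse transcription, amplification, barcoding and sequencing. RNA level is the RNA-to-DNA read ratio normalized to a spiked-in non-cleaving sequence or to the leading sequences, then scaled and log-transformed. Scaling was ×100 with log10, the leading set comprised 25 sequences, and the cutoff was ≥100 DNA reads.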

[2] = variants of: B1; assay: normalized RNA/DNA level with ligand (relative to sTRSVctl = 100) (log10 (% of sTRSVctl)); HEK293T overexpressing SLC46A1; ligand concentration (+) RNA-Seq: 6 mM; higher = less ribozyme self-cleavage, higher mRNA level; conditions: with (6R,S)-folinic acid; ligand present: yes
How it was run: as §1

| Variant | normalized RNA/DNA level without ligand (log10) [1] | normalized RNA/DNA level with ligand (log10) [2] |
| --- | --- | --- |
| GCUGUCACCGGUGCUUGGUACGUUAUAUUCAGCCGGUCUGAUGAGUCUACUUGUAGACGAAACAGC [ACUUGU] | 2.062 ± 0.011 | 2.064 ± 0.013 |
| GCUGUCACCGGUGCUUGGUACGUUAUAUUCAGCCGGUCUGAUGAGUCUACUUGAAGACGAAACAGC [ACUUGA] | 1.9759 ± 0.0013 | 2.03 ± 0.041 |
| GCUGUCACCGGUGCUUGGUACGUUAUAUUCAGCCGGUCUGAUGAGUCUACUUGCAGACGAAACAGC [ACUUGC] | 2.036 ± 0.0029 | 2.03 ± 0.03 |
| GCUGUCACCGGUGCUUGGUACGUUAUAUUCAGCCGGUCUGAUGAGUCUUCUUGAAGACGAAACAGC [UCUUGA] | 1.987 ± 0.0069 | 2.025 ± 0.006 |
| GCUGUCACCGGUGCUUGGUACGUUAUAUUCAGCCGGUCUGAUGAGUCUUCUUGUAGACGAAACAGC [UCUUGU] | 1.976 ± 0.014 | 2.02 ± 0.051 |
| GCUGUCACCGGUGCUUGGUACGUUAUAUUCAGCCGGUCUGAUGAGUCUGCUUCGAGACGAAACAGC [GCUUCG] | 2.024 ± 0.015 | 2.02 ± 0.025 |
| GCUGUCACCGGUGCUUGGUACGUUAUAUUCAGCCGGUCUGAUGAGUCUGCUUCUAGACGAAACAGC [GCUUCU] | 2.0037 ± 0.0006 | 2.01 ± 0.048 |
| GCUGUCACCGGUGCUUGGUACGUUAUAUUCAGCCGGUCUGAUGAGUCUCGAAACAGACGAAACAGC [CGAAAC] | 1.985 ± 0.0043 | 1.99 ± 0.04 |
| GCUGUCACCGGUGCUUGGUACGUUAUAUUCAGCCGGUCUGAUGAGUCUCGAAAUAGACGAAACAGC [CGAAAU] | 1.942 ± 0.0046 | 1.967 ± 0.013 |
| GCUGUCACCGGUGCUUGGUACGUUAUAUUCAGCCGGUCUGAUGAGUCUCCUUUGAGACGAAACAGC [CCUUUG] | 2.039 ± 0.017 | 2.01 ± 0.067 |
| GCUGUCACCGGUGCUUGGUACGUUAUAUUCAGCCGGUCUGAUGAGUCUCCUUUCAGACGAAACAGC [CCUUUC] | 2.062 ± 0.0044 | 2.01 ± 0.053 |
| GCUGUCACCGGUGCUUGGUACGUUAUAUUCAGCCGGUCUGAUGAGUCUCCUUUUAGACGAAACAGC [CCUUUU] | 2.031 ± 0.0026 | 2 ± 0.027 |
| GCUGUCACCGGUGCUUGGUACGUUAUAUUCAGCCGGUCUGAUGAGUCUGGAAAUAGACGAAACAGC [GGAAAU] | 1.98 ± 0.025 | 2.04 ± 0.027 |
| GCUGUCACCGGUGCUUGGUACGUUAUAUUCAGCCGGUCUGAUGAGUCUAGAAAAAGACGAAACAGC [AGAAAA] | 1.984 ± 0.0076 | 2 ± 0.034 |
| GCUGUCACCGGUGCUUGGUACGUUAUAUUCAGCCGGUCUGAUGAGUCUAGAAAGAGACGAAACAGC [AGAAAG] | 1.901 ± 0.0062 | 2.01 ± 0.022 |
| GCUGUCACCGGUGCUUGGUACGUUAUAUUCAGCCGGUCUGAUGAGUCUAGAAACAGACGAAACAGC [AGAAAC] | 2.0013 ± 0.00088 | 2.01 ± 0.026 |
| GCUGUCACCGGUGCUUGGUACGUUAUAUUCAGCCGGUCUGAUGAGUCUAGAAAUAGACGAAACAGC [AGAAAU] | 2.026 ± 0.0034 | 2.01 ± 0.044 |
| GCUGUCACCGGUGCUUGGUACGUUAUAUUCAGCCGGUCUGAUGAGUCUUCUUUGAGACGAAACAGC [UCUUUG] | 1.81 ± 0.031 | 1.952 ± 0.019 |
| GCUGUCACCGGUGCUUGGUACGUUAUAUUCAGCCGGUCUGAUGAGUCUUCUUUCAGACGAAACAGC [UCUUUC] | 2.017 ± 0.0074 | 1.996 ± 0.0066 |
| GCUGUCACCGGUGCUUGGUACGUUAUAUUCAGCCGGUCUGAUGAGUCUUCUUUAAGACGAAACAGC [UCUUUA] | 2.001 ± 0.0056 | 2 ± 0.015 |
| GCUGUCACCGGUGCUUGGUACGUUAUAUUCAGCCGGUCUGAUGAGUCUACUUUUAGACGAAACAGC [ACUUUU] | 2.037 ± 0.012 | 2 ± 0.038 |

| Variant | normalized RNA/DNA level without ligand (log10) [1] | normalized RNA/DNA level with ligand (log10) [2] |
| --- | --- | --- |
| GCUGUCACCGGUGCUUGGUACGUUAUAUUCAGCCGGUCUGAUGAGUCUACUUUGAGACGAAACAGC [ACUUUG] | 1.94 ± 0.043 | 2.001 ± 0.015 |
| GCUGUCACCGGUGCUUGGUACGUUAUAUUCAGCCGGUCUGAUGAGUCUACUUUCAGACGAAACAGC [ACUUUC] | 2.041 ± 0.0054 | 2.05 ± 0.038 |
| GCUGUCACCGGUGCUUGGUACGUUAUAUUCAGCCGGUCUGAUGAGUCUGCUUGCAGACGAAACAGC [GCUUGC] | 2.052 ± 0.01 | 2.01 ± 0.022 |
| GCUGUCACCGGUGCUUGGUACGUUAUAUUCAGCCGGUCUGAUGAGUCUGCUUGUAGACGAAACAGC [GCUUGU] | 2.004 ± 0.017 | 2.04 ± 0.058 |
| GCUGUCACCGGUGCUUGGUACGUUAUAUUCAGCCGGUCUGAUGAGUCUGCUUGAAGACGAAACAGC [GCUUGA] | 1.999 ± 0.0031 | 2.024 ± 0.018 |
| GCUGUCACCGGUGCUUGGUACGUUAUAUUCAGCCGGUCUGAUGAGUCUGCUUGGAGACGAAACAGC [GCUUGG] | 1.932 ± 0.015 | 2.02 ± 0.028 |
| GCUGUCACCGGUGCUUGGUACGUUAUAUUCAGCCGGUCUGAUGAGUCUCCUUGGAGACGAAACAGC [CCUUGG] | 2.047 ± 0.016 | 2.01 ± 0.022 |
| GCUGUCACCGGUGCUUGGUACGUUAUAUUCAGCCGGUCUGAUGAGUCUCCUUGAAGACGAAACAGC [CCUUGA] | 2.017 ± 0.0066 | 2.03 ± 0.027 |
| GCUGUCACCGGUGCUUGGUACGUUAUAUUCAGCCGGUCUGAUGAGUCUCCUUGCAGACGAAACAGC [CCUUGC] | 2.004 ± 0.0087 | 2.05 ± 0.039 |
| GCUGUCACCGGUGCUUGGUACGUUAUAUUCAGCCGGUCUGAUGAGUCUCCUUGUAGACGAAACAGC [CCUUGU] | 2.01 ± 0.04 | 2.005 ± 0.013 |
| GCUGUCACCGGUGCUUGGUACGUUAUAUUCAGCCGGUCUGAUGAGUCUGCUUUCAGACGAAACAGC [GCUUUC] | 2.0144 ± 0.0002 | 2.01 ± 0.029 |
| GCUGUCACCGGUGCUUGGUACGUUAUAUUCAGCCGGUCUGAUGAGUCUGCUUUGAGACGAAACAGC [GCUUUG] | 1.995 ± 0.015 | 2.02 ± 0.053 |
| GCUGUCACCGGUGCUUGGUACGUUAUAUUCAGCCGGUCUGAUGAGUCUGCUUUUAGACGAAACAGC [GCUUUU] | 2.01 ± 0.047 | 2.02 ± 0.035 |
| GCUGUCACCGGUGCUUGGUACGUUAUAUUCAGCCGGUCUGAUGAGUCUACUUCGAGACGAAACAGC [ACUUCG] | 1.968 ± 0.0047 | 2.02 ± 0.029 |
| GCUGUCACCGGUGCUUGGUACGUUAUAUUCAGCCGGUCUGAUGAGUCUACUUCCAGACGAAACAGC [ACUUCC] | 2.058 ± 0.009 | 2.0589 ± 0.002 |
| GCUGUCACCGGUGCUUGGUACGUUAUAUUCAGCCGGUCUGAUGAGUCUACUUCUAGACGAAACAGC [ACUUCU] | 2.031 ± 0.0021 | 1.99 ± 0.059 |
| GCUGUCACCGGUGCUUGGUACGUUAUAUUCAGCCGGUCUGAUGAGUCUUCUUCGAGACGAAACAGC [UCUUCG] | 1.91 ± 0.02 | 2.0469 ± 0.0016 |
| GCUGUCACCGGUGCUUGGUACGUUAUAUUCAGCCGGUCUGAUGAGUCUUCUUCUAGACGAAACAGC [UCUUCU] | 2.064 ± 0.0051 | 2.095 ± 0.011 |
| GCUGUCACCGGUGCUUGGUACGUUAUAUUCAGCCGGUCUGAUGAGUCUCCUUCGAGACGAAACAGC [CCUUCG] | 2.017 ± 0.019 | 2.045 ± 0.012 |
| GCUGUCACCGGUGCUUGGUACGUUAUAUUCAGCCGGUCUGAUGAGUCUCCUUCUAGACGAAACAGC [CCUUCU] | 2.01 ± 0.024 | 2.02 ± 0.041 |
